# Reference: paper PMC8600288
# Biological target: AlyA3, PL17 alginate lyase from Zobellia galactanivorans DsijT (recombinant, His-tagged, without signal peptide) (Zobellia galactanivorans DsijT)
# Assay: SEC
substance,measurement,value
"AlyA3, PL17 alginate lyase from Zobellia galactanivorans DsijT (recombinant, His-tagged, without signal peptide) (enzyme)",stoichiometry N,2
